Measurements: US11166479B2, “Feedstuffs for aquaculture comprising stearidonic acid” (COMMONWEALTH SCIENTIFIC AND INDUSTRIAL RESEARCH ORGANISATION, priority 2005, dated 2021)

Test system: yeast strain S288Cα
Assay: Heterologous expression of E. plantagineum Δ6-desaturase gene in yeast, conversion of fed fatty acids
Assay type: cell-based
Details: 20° C., 2-3 days
Experimental: Expression experiments in yeast were carried out to confirm that the cloned E. platangineum gene (cDNA sequence provided as SEQ ID NO:25) encoded a Δ6-desaturase enzyme. The gene fragment was inserted as an XbaI-SacI fragment into the […] sites of the yeast expression vector pSOS (Stratagene) containing the constitutive ADH1 promoter, resulting in plasmid pXZP271. This was transformed into yeast strain S288Cα by a heat shock method and transformant colonies selected by plating on minimal media plates. For the analysis of enzyme activity, 2 mL yeast clonal cultures were grown to an O.D.600 of 1.0 in yeast minimal medium in the presence of 0.1% NP-40 at 30° C. with shaking. Precursor free-fatty acids, either linoleic or linolenic acid as 25 mM stocks in ethanol, were added so that the final concentration of fatty acid was 0.5 mM. The cultures were transferred to 20° C. and grown for 2-3 days with shaking. Yeast cells were harvested by repeated centrifugation and washing first with 0.1% NP-40, then 0.05% NP-40 and finally with water. Fatty acids were extracted and analyzed. The peak identities of fatty acids were confirmed by GC-MS.

B1: EplD6Des: Δ6 desaturase from Echium plantagineum, polypeptide of 438 amino acid residues, expressed in yeast from plasmid pXZP271 (protein, listed as Echium plantagineum)
chain: MANAIKKYITAEELKKHDKAGDLWISIQGKIYDVSDWLKDHPGGNFPLLSLAGQEVTDAFVAFHSGTTWKLLEKFFTGYYLKDYSVSEVSKDYRKLVFEFNKMGLFDKKGHIVLVTVLFIAMLFGMSVYGVLFCEGVLVHLLAGGLMGFVWIQSGWIGHDAGHYIVMPDARLNKLMGIVAANCLSGISIGWWKWNHNAHHIACNSLDYDPDLQYIPFLVVSSKLFSSLTSHFYEKKLTFDSLSRFFVSHQHWTFYPVMCMARVNMFVQSLIMLLTKRNVFYRSQELLGLVVFWIWYPLLVSCLPNWGERVMFVVASLSVTGMQQVQFSLNHFSSSVYVGQPKGNDWFEKQTCGTLDISCPSWMDWFHGGLQFQVEHHLFPKLPRCHLRKISPFVMELCKKHNLSYNCASFSEANNMTLRTLRDTALQARDLTKPLPKNLVWEALNTHG
LA converted to GLA (0.5 mM linoleic acid fed): Around 2.9% | ALA converted to SDA (0.5 mM linolenic acid fed): ~2.3%
